“And” between values parts separate entries of the source, which are not always exact repeats. Identical values can stand only once.
Experiments:
[1] = Storage stability of inhibitory activity; assay type: physicochemical; settings: about 4° C.
Excerpt: The protein fractions are combined and the whole is subjected to separation on a membrane permeable compounds of a certain size. Because at this stage the interest is focused on the isolation of peptides and not cystatins, the combined protein fractions were not stabilized with glycerol or other glycols. The main reason for not using a stabilizer is the high probability of blocking the filters used in the separation stage. The combined protein fractions (eluate from the affinity chromatography column) are filtered as quickly as possible using membrane permeable to 3 kDa molecules, and then the low molecular filtrate is desalted on membrane permeable to 700 Da. […] The resulting low molecular weight oligopeptides are able to inhibit cysteine peptidase enzymes such as autogenic cathepsins or bacterial enzymes. The low molecular weight cysteine peptidase inhibitors of the invention thus obtained are stored either in a refrigerator (+4° C.) or in a freezer.
Inhibitory activity of cystatin and several-amino acid inhibitors of cysteine peptidases were determined in relation to cysteine gingipain in gingival pocket fluids and cysteine cathepsins in cancerous tissues and veins of people with atherosclerosis or native cathepsin B.

[2] = test system: cysteine gingipain in gingival pocket fluids; experiment: In vivo inhibition of cysteine gingipain activity in dogs (gums rubbed and drinking water with cystatin)
Protocol: (§1) A solution containing known cystatin from egg white with a concentration of 0.02% and activity of 12 U/mg and 20% glycerin was used to rub the gums of dogs (once a day) and added 0.2 ml to a bowl with 200 ml drinking water (1 mU)/ml cystatin) for 4-6 weeks. Liquids from gingival pockets were removed using plaque paper, which was placed in 1 ml saline and frozen at −80° C., before removing plaque calculus. Then, after the aforementioned cystatin therapy from egg white, fluids from the gingival pockets were taken again in an analogous manner and frozen. After obtaining the desired amount of samples, they were thawed, sonicated, centrifuged to then determine the activity of cysteine gingipain in 100 μL samples using a BANA substrate (Benzoyl-arginyl-beta-naphthylamide). Test samples with a volume of 100 μl were preincubated at 37° C. in 0.01 M phosphate buffer pH 6.0 with the addition of 1 μM DL-cysteine and 2 μM EDTA for 10 minutes, then a solution of N-benzoyl DL-arginyl hydrochloride-β-naphthylamide (BANA) so that its final concentration in the test sample was 1.5 mM, and then incubated under these conditions for 30 minutes. After this time, the reaction was stopped by determining the colorimetrically released β-naphthylamine.
Standard tests for which the final result was determined were prepared in parallel with the tested samples, which were solutions containing all components as in the actual tests, except that after adding the BANA substrate the reactions were immediately stopped and the colorimetrically determined free β-naphthylamine was determined. As one unit of enzymatic activity of cysteine proteinases is the amount of enzyme which releases 1.0 nmole of β-naphthylamine from the substrate within one hour under the described incubation conditions, whereas as an inhibitor unit—the amount that inhibits 1 enzyme unit.

[3] = test system: cysteine gingipain in gingival pocket fluids; settings: as disclosed in PL 428931; cited from earlier work
[4] = test system: cysteine gingipain in dogs gingival pockets; settings: as disclosed in PL 428931; cited from earlier work
[5] = test system: cysteine gingipain in gingival pocket fluids; experiment: Inhibition of cysteine gingipain activity in gingival pocket fluids of patients with periodontitis (BApNA substrate); assay type: biochemical, human; settings: not exceeded even with excess inhibitor
Protocol: In gingival pocket fluids, cysteine gingipain activity was determined as the amount of p-nitroaniline released from BApNA (Benzoyl-DL Arginyl-para-nitroanilide) substrates, or Z-Arg-Arg-pNA (Benzol-DLArg-Arg-β-p-nitroanilide).
The amount of cysteine peptidases that was used as enzymatic activity was that led to the degradation of the substrates used and release of micromoles of p-nitroaniline from them within 1 minute at 37° C.
Inhibition was performed in 10 fluid samples from gingival pockets taken from patients diagnosed with periodontitis.
Determination of gingipain activity in fluids taken from gingival pockets: Fluid from the gingival pockets is taken with small strips of cellulose paper, which are placed in a tube containing 1 ml of PBS. The solution is sonicated for 30 sec on ice, then centrifuged at 10,000 g for 10 min.
To 1 ml of 20 mM pH 6.0 phosphate buffer containing 2 mM EDTA and 1 mM DTT is added 100 μl gingipain solution, then 20-100 μL inhibitor solution is added, and 20 μL BApNA substrate solution (Benzoyl DL Arginyl para-nitroanilide) 40/mg/ml DMSO. […] Absorbance is measured at 405 nm on a spectrophotometer relative to the control (without inhibitors and papain). Gingipain activity is measured by the amount of para-nitroaniline released.

chicken embryo = experiment: Toxicity in chicken embryo studies; assay type: in vivo
[6] = test system: cysteine gingipain in gingival pocket fluids; experiment: In vitro inhibition of cysteine gingipain activity in human gingival pocket fluids by egg white cystatin (BANA substrate); assay type: biochemical; settings: Table 6
Protocol: as §1
As one unit of enzymatic activity of cysteine proteinases is the amount of enzyme which releases 1.0 nmole of β-naphthylamine from the substrate within one hour under the described incubation conditions, whereas as an inhibitor unit—the amount that inhibits 1 enzyme unit.
Patients with periodontitis were taken from the gingival pockets before removing the plaque using tissue strips, which were placed in 1 ml of saline and then frozen at −80° C. […] The solution was sonicated, centrifuged and 100 μl of supernatant was taken for determinations. Various amounts of cystatin were added to the test solution, and then the protease activity was determined by the BANA test as in Example 1.

Porphyromonas gingivalis = settings: concentration of 50 WI; cited from earlier work
[7] = test system: cysteine gingipain in gingival pocket fluids; experiment: Dog case study, cystatin in drinking water and gum rubbing; assay type: in vivo; settings: one dog
Protocol: A female mixed breed, weighing about 5 kg and 7 years old, became dejected and avoided food, staggered and turned over, and purulent discharge leaked from her nose. […] In dormancy, the stone was removed along with four molars on the left. During sleep, gingival pocket fluids were removed from 3 gingival pockets on the right using strips of paper and placed in tubes containing 1 ml of saline. After grinding the paper with ultrasound and centrifugation, the activity of cysteine gingipain was determined in solutions. Their activity ranged from 1.35 to 0.89 units based on 1.0 ml of liquid based on the amount of β-naphthylamine released. For 4 weeks, the dog was given water to drink with the addition of cystatin from egg protein at a concentration of about 10-6% and rubbed the gums with a pad impregnated with 0.001% cystatin from egg white 3-4 times a day. […] After 6 years of surgery, there were no changes in the periodontium. After some time, the dog got used to rubbing his gums, which probably saved him from changes in the periodontium.

[8] = test system: cysteine gingipain in dogs gingival pockets; experiment: In vitro inhibition of cysteine proteases in gingival pocket fluid of dogs (BANA); assay type: biochemical; design: key to Cysteine gingipain activity after adding cystatin: enzyme units; 1 U releases 1.0 nmol β-naphthylamine per hour; settings: 40 ng cystatin
Protocol: as §1
Standard tests for which the final result was determined were prepared in parallel with the tested samples, which were solutions containing all components as in the actual tests, except that after adding the BANA substrate the reactions were immediately stopped and the colorimetrically determined free β-naphthylamine was determined. […]
Before periodontal removal, dogs with periodontal disease collected fluid from the gingival pockets using tissue strips that were placed in 1 mL of saline. […] Various amounts of cystatin were added to the test solution, and then the protease activity was determined using the BANA substrate as in Example 1.

[9] = individual samples 1-11, after 4-6 weeks cystatin treatment vs before plaque removal, listed as cystatin solution from egg white

B1: cystatin from egg white: known cystatin from egg white, activity 12 U/mg, stabilized with glycerol; natural cysteine peptidase inhibitor (protein, UniProt P01038 24-139, looked up)
Cystatin: SEDRSRLLGAPVPVDENDEGLQRALQFAMAEYNRASNDKYSSRVVRVISAKRQLVSGIKYILQVEIGRTTCPKSSGDLQSCEFHDEPEMAKYTTCTFVVYSIPWLNQIKLLESKCQ
inhibitory activity after storage for several months in the refrigerator [1]: dimerizes and loses its biological activity | % inhibited activity, Average ([2]; average of 11 samples): Approximately 67% | % remaining activity, Average ([2]; average of 11 samples): 32.97 ± 21.49% | % inhibited activity, Average ([2]; average of 11 samples, listed as cystatin solution from egg white): 67.05 ± 21.52% | % inhibited activity [2, 9]: 94.79% and 77.31% and 79.23% and 58.9% and 64.33% and 93.50% and 24.24% and 81.26% and 67.68% and 54.78% and 41.55% | % remaining activity [2, 9]: 5.51% and 22.69% and 20.77% and 41.10% and 35.67% and 6.50% and 75.76% and 18.73% and 32.32% and 45.22% and 58.45% | blocked proteolytic activity in the gingival pocket fluid, humans [3]: about 85% | blocked total proteolytic activity, dogs [4]: about 90% | inhibition of proteolytic activity in gingival pocket fluids compared to total activity [5]: 85% | toxicity relative to 0.02% chlorhexidine (chicken embryo): about 105 times lower | E/F*100 inhibited activity, Average ([6]; average of 23 samples): 15.89 ± 6.28% | CP activity after adding cystatin ([6]; individual samples 1-23): 0.47 U/ml (3×) and 0.61 U/ml and 1.16 U/ml and 0.98 U/ml (2×) and 1.12 U/ml (2×) and 0.75 U/ml and 0.34 U/ml and 0.87 U/ml and 1.22 U/ml and 1.11 U/ml and 2.19 U/ml and 2.52 U/ml and 1.97 U/ml and 3.96 U/ml and 2.18 U/ml and 3.11 U/ml and 1.28 U/ml and 2.74 U/ml and 1.73 U/ml | E/F*100 inhibited activity ([6]; individual samples 1-23): 18.29% and 28.11% and 10.59% and 10.08% and 26.86% and 18.94% and 9.63% and 5.67% and 11.03% and 14.79% and 10.68% and 14.30% and 8.99% and 14.76% and 11.46% and 21.57% and 24.84% and 24.00% and 22.20% and 24.47% and 13.87% and 20.10% and 16.83% | elimination of bacteria from an infected area (Porphyromonas gingivalis): up to 50% | change of gingipain activity in gingival pocket fluids ([7]; 4 weeks cystatin in water and gum rubbing 3-4 times a day, sampled after 3 months): reduced almost five-fold | tartar build-up and gum redness ([7]; after 3 months): no tartar build-up or redness in the gums | % inhibited activity, Average ([8]; average of 19 dogs): 87.28 ± 8.92% | % remaining activity, Average ([8]; average of 19 dogs): 12.72 ± 8.92% | Cysteine gingipain activity after adding cystatin ([8]; dogs gingival pocket fluid, individual samples 1-19, 12 units/mg protein): 0.06 (2×) and 0.04 (3×) and 0.03 (3×) and 0.08 and 0.02 (2×) and 0.07 (2×) and 0.09 and 0.15 and 0.24 and 0.13 (2×) and 0.23

Source: patent publication US20220119496A1, “INHIBITORS OF CYSTEINE PEPTIDASES ISOLATED FROM NATURAL RAW MATERIALS AND USE OF THE INHIBITORS IN MEDICINE AND VETERINARY MEDICINE” (priority 2019, published 2022)
